Data set [1] can be described thus: Zinc precipitation of GLP-1 compounds (A280 of supernatant). In kind it is physicochemical. The settings on record: HEPES pH 7.4, 22° C., 18 hours. The method, then:
Individual GLP-1 compounds were prepared as described in Examples 1 or 2. 3 mg of an individual lyophilized GLP molecule was dissolved in 3 ml 0.1 M HEPES buffer pH 10.5. The pH of the resulting solution was then adjusted to between 10.0 and 10.5 with 0.2 N NaOH. The solution was stirred at ambient temperature for 30 minutes and the solution was then adjusted to a pH of 7.4 with 0.2 N HCl. The solution was filtered through an appropriate syringe filter, for example a Millex GV syringe filter (Millipore Corporation, Bedford, Mass.), and the concentration of the GLP-1 compound was estimated by measuring the absorption at 280 nm in a spectrophotometer, for example a Beckman DU640. The protein concentration was then adjusted to 200 μM in HEPES pH 7.4.
The filtered GLP-1 solutions (100 μl) were diluted with 100 μl of 0.1 M HEPES pH 7.4 containing various levels of zinc chloride in an ELISA plate, (e.g. Falcon Microtest™ 96) resulting in 200 μl of solution containing various levels of zinc chloride and 100 μM GLP-1 compounds. These solutions were incubated at ambient temperature (22° C.) for 18 hours and then centrifuged, for example, in a Jouan CR412 centrifuge with microplate adapters. 150 μl of the supernatants after centrifugation were then transferred to a UV-readable ELISA microtiter plate (e.g. Costar UV plate) and the OD at 280 was determined in a microplate reader (e.g. Molecular Devices SPECTRAmax PLUS, SOFTmax PRO). A280 values are the result of two independent determinations.

The test system of the next data set is GLP-1 receptor. As to the kind of experiment: GLP-1 receptor activation, in vitro assays. In kind it is cell-based. The following applies: activity relative to the activity of GLP-1(7-37)OH. An excerpt:
“Insulinotropic activity” refers to stimulating insulin secretion in response to elevated glucose levels, thereby causing glucose uptake by cells and decreased serum glucose levels. Insulinotropic activity can be assessed by methods known in the art, including using in vivo experiments and in vitro assays that measure GLP-1 receptor binding activity or receptor activation, e.g., assays employing pancreatic islet cells or insulinoma cells, as described in EP 619,322 to Gelfand, et al., and U.S. Pat. No. 5,120,712, respectively. The entire teachings of these references are incorporated herein by reference.
The ability of the GLP-1 compounds of the present invention to activate the GLP-1 receptor was assessed using in vitro assays such as those described in EP 619,322 to Gelfand, et al., and U.S. Pat. No. 5,120,712, respectively. The entire teachings of these references are incorporated herein by reference.

Data set [2] in a line: GLP Aggregation Assay (time to onset of aggregation, turbidity at 350 nm). In kind it is physicochemical. The following applies: 0.3 mg/mL in 10 mM citrate, 10 mM phosphate, 150 mM NaCl, pH 7.4 to 7.5, 37° C., stirred, turbidity at 350 nm. The method, then: GLP peptides of this invention were analyzed with respect to their potential to aggregate in solution. In general, peptides in solution were stirred at elevated temperature in a suitable buffer while recording turbidity at 350 nm as a function of time. Time to the onset of aggregation was measured to quantify the potential of a given GLP molecule to aggregate under these stressed conditions.
A GLP-1 compound was first dissolved under alkaline conditions (pH 10.5) for 30 minutes to dissolve any pre-aggregated material. The solution was then adjusted to pH 7.4 and filtered. Specifically, 4 mg of a lyophilized GLP-1 compound was dissolved in 3 ml of 10 mM phosphate/10 mM citrate. The pH was adjusted to 10.0-10.5 and held for 30 minutes. The solution was adjusted with HCl to pH 7.4 and filtered through a suitable filter, for example a Millex GV syringe filter (Millipore Corporation, Bedford, Mass.). This solution was then diluted to a final sample containing 0.3 mg/mL protein in 10 mM citrate, 10 mM phosphate, 150 mM NaCl, and adjusted to pH 7.4 to 7.5. […] Every five minutes the turbidity of the solution was measured at 350 nm on an AVIV Model 14DS UV-VIS spectrophotometer (Lakewood, N.J.). For 30 seconds prior to and during the measurement the solution was stirred using a magnetic stir bar from Starna Cells, Inc. (Atascadero, Calif.). An increase in OD at 350 nm indicates aggregation of the GLP-peptide. The time to aggregation was approximated by the intersection of linear fits to the pre-growth and growth phase according to method of Drake (Arvinte T, Cudd A, and Drake A F. (1993) J. Bio. Chem. 268, 6415-6422).
The cuvette was cleaned between experiments with a caustic soap solution (e.g., Contrad-70).
The results for a number of GLP-1 compounds of the present invention are reported in Table 1 as the time in hours required for the compound to aggregate.

Setting [3] is: Zn/GLP-1 molar ratio 0, 100 μM GLP-1 compound.
The mark [4] stands for this setting: Zn/GLP-1 molar ratio 0.3, 100 μM GLP-1 compound.
[5] abbreviates: Zn/GLP-1 molar ratio 0.5, 100 μM GLP-1 compound.
Setting [6] is: Zn/GLP-1 molar ratio 0.7, 100 μM GLP-1 compound.
[7] abbreviates: Zn/GLP-1 molar ratio 1, 100 μM GLP-1 compound.
Setting [8] is: Zn/GLP-1 molar ratio 2, 100 μM GLP-1 compound.
The mark [9] stands for this setting: Zn/GLP-1 molar ratio 3, 100 μM GLP-1 compound.
[10] abbreviates: Zn/GLP-1 molar ratio 5, 100 μM GLP-1 compound.

This is an account of results in patent US20060263849A1, “Glucagon-like peptide-1 analogs” (priority 2000, published 2006).

“And” between values parts separate entries of the source, which are not always exact repeats. Identical values can stand only once.

For the substance “Val^8-Lys^22-GLP-1(7-37)OH (HVEGTFTSDVSSYLEKQAAKEFIAWLVKGRG)”, the A280 in data set [1] (setting [3]) was 0.299; in data set [1] (setting [4]), 0.0825; in data set [1] (setting [5]), 0.0905; in data set [1] (setting [6]), 0.1195; in data set [1] (setting [7]), 0.1225; in data set [1] (setting [8]) it was 0.1675. Moreover, the A280 in data set [1] (setting [9]) was determined as 0.1475; in data set [1] (setting [10]) it was 0.142. Further, the “GLP-1 Receptor Activation” value in the data set on GLP-1 receptor amounted to 0.58. For the same substance, the “Aggregation Time” value in data set [2] is 100 h and 54 h.

With “Val^8-Pro^22-GLP-1(7-37)OH (HVEGTFTSDVSSYLEPQAAKEFIAWLVKGRG)”, the A280 was 0.2595 in data set [1] (setting [3]); 0.2455 in data set [1] (setting [4]); 0.2325 in data set [1] (setting [5]); 0.219 in data set [1] (setting [6]); 0.1905 in data set [1] (setting [7]); 0.1695 in data set [1] (setting [8]). Besides, the A280 in data set [1] (setting [9]) worked out at 0.1615; in data set [1] (setting [10]) it was 0.171. For the same substance, the “GLP-1 Receptor Activation” value in the data set with GLP-1 receptor is reported as 0.01. The “Aggregation Time” value in data set [2] is greater than 75 h.

With “Val^8-Ser^22-GLP-1(7-37)OH (HVEGTFTSDVSSYLESQAAKEFIAWLVKGRG)”, the A280 in data set [1] (setting [3]) is recorded as 0.2855; in data set [1] (setting [4]), 0.2805; in data set [1] (setting [5]), 0.2665; in data set [1] (setting [6]), 0.1825; in data set [1] (setting [7]), 0.149; in data set [1] (setting [8]) it was 0.0935. Moreover, the A280 in data set [1] (setting [9]) is recorded as 0.101; in data set [1] (setting [10]), 0.0615. The “GLP-1 Receptor Activation” value in the data set with GLP-1 receptor is reported as 0.50. In addition, the “Aggregation Time” value in data set [2] amounted to 22 h.
